These results are taken from article PMC8497785, “Structural Characterization of the RNA-Binding Protein SERBP1 Reveals Intrinsic Disorder and Atypical RNA Binding Modes”.

This series deals with T1, SERBP1 189-400 (Homo sapiens, UniProt Q8NC51 189-400).
T1 sequence: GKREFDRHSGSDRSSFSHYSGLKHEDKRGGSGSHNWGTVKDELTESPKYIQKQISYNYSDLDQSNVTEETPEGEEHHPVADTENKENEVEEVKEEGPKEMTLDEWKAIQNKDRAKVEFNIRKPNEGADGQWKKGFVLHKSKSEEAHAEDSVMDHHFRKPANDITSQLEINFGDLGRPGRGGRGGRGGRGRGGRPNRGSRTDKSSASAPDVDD
The series can be described thus: NMR 1H,15N-HSQC titration; RNA:protein 2:5 to 8:5; CSPs from C-terminal RGG box to C-terminus (N383, T388, S394, A395, V398), RGG glycine broadening; 20 mM sodium phosphate pH 6.9, 60 mM NaCl, 1 mM PMSF, 0.2 mM EDTA, 10% D2O, 4 °C; 50 µM protein. To be noted: protein: recombinant; tags: N-terminal 8xHis removed by TEV (vector-derived residues may remain).

B1: 7-mer G-rich RNA (G-quartet ligand) (ssRNA)
RNA: GCGCGGG
Consider B1, for which the binding result is reported as “binds”.
